From patent US20250206818A1 (AGENUS, published 2025)

T1: human LAG-3 (human, UniProt P18627 23-450, limits assumed)
T1 construct: Selections used human LAG-3-Fc, human LAG-3-6His, a 30 aa LAG-3 peptide and/or cells with cynomolgus LAG-3; also called CD223
T1 sequence (looked up): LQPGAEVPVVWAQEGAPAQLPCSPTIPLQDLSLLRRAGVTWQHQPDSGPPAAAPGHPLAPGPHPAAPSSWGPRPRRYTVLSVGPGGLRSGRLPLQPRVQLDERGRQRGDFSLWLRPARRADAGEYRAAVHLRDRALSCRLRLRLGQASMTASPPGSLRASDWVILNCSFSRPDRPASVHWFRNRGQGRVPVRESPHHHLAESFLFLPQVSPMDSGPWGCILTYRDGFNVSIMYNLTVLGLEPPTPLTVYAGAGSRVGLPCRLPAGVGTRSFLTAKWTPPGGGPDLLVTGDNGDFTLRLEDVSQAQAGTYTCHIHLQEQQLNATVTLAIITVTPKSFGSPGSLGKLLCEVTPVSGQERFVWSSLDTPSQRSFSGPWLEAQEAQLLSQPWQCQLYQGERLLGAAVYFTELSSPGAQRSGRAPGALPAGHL

T2: human LAG-3 expressed on cells (human, UniProt P18627 23-525)
T2 construct: whole, on cells; also called CD223
T2 sequence (looked up): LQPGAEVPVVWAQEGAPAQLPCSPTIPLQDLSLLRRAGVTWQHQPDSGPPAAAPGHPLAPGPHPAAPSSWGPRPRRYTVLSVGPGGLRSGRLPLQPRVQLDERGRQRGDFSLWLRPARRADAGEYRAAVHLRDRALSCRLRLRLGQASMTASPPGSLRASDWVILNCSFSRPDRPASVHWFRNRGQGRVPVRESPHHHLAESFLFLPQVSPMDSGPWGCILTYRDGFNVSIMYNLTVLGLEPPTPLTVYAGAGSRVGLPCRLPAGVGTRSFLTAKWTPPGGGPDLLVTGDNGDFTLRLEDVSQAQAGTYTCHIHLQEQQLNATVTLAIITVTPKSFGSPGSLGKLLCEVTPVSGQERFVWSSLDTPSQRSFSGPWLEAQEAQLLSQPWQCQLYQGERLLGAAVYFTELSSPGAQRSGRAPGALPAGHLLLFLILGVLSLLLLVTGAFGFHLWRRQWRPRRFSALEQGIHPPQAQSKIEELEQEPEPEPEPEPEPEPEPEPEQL


Legend:
[1] = target: T1, human LAG-3; assay: Fab phage display selection; periplasmic extracts screened by ELISA or flow cytometry
Description: Anti-LAG-3 antibodies were identified by generation and selection of an immunized Fab phage display library. […] Per mouse, a Fab library was then generated by random-primed cDNA using total RNA as a template to amplify variable regions from mouse antibody genes. Heavy and kappa chain amplicons were combined and cloned into phagemid vectors. […] The 30 amino acid human LAG-3 peptide is a biotinylated peptide comprising the amino acid sequence of […] (SEQ ID NO: 199). Periplasmic extracts of selected Fab clones were then screened by ELISA or flow cytometry. Antibody sequencing and off-rate analysis were then performed on anti-LAG-3 Fabs.

[2] = target: T2, human LAG-3 expressed on cells; assay: flow cytometry, Fab periplasmic extract on Jurkat cells expressing human LAG-3 (FIGS. 1A-1C)
Description: The anti-LAG-3 Fabs from periplasmic extracts were tested for binding to LAG-3-expressing cells using flow cytometry. Briefly, wild type and human LAG-3-expressing Jurkat cells were plated at 2×10⁵ cells/well in sample buffer (PBS (Gibco, Cat #10010-015)+0.5% FBS (Gibco, Cat #10270-106)) in 96-well U-bottom plates (Sarstedt). 22 μl of anti-LAG-3 Fab periplasmic extract and 83 μl of diluted anti-c-myc antibody (Gentaur, Clone #9E10, Cat #04-cmyc-9E10) were incubated for 30 minutes at room temperature. 100 μl of the periplasmic extract/anti-c-myc mixture was added to cells and then incubated for one hour on ice. Cells were washed three times and then incubated with a goat anti-mouse APC (BD Biosciences, Cat #550826) for 30 minutes on ice. Cells were washed three times and then analyzed with a FACS machine (BD Accuri6).

Binder	binding result [1]	binding result [2]
P13B11 Fab (Fab, V domains shown, Murine Fab, periplasmic extract) VH: QVQLQQPGAELVKPGASVKLSCTASGFNIKDNYMDWVKQRPEQGLEWIGKIDPANGNTKYDPKFQGKATITADTSSNTAYLQLSSLTSEDTAVYYCATYYYRYDVGGFDYWGQGTTLTVS VL: QIVLTQSPALMAASPGEKVTITCSVSSSISSSNLHWFQQKSGTSPKLWIYGTSNLASGVPVRFSGSGSGTSYSLTISSMEAEDAATYYCQQWSSYPFTFGSGTKLEIK	binds	binds
P13F09 Fab (Fab, V domains shown, Murine Fab, periplasmic extract) VH: QVQLQQSGAELVKPGASVKLSCTASGFNIKDNYIHWVKQRPEQGLEWIGSIDPANGNTKYDPKFQGKASITADTSSNTAYLQLSSLTSEGTAVYYCASYFYRYDVGGFDYWGQGTTLTVS VL: EIVLTQSPALMAASPGEKVTITCSVSSSISSSNLHWFQQKSGTSPKLWIYGTSNLASGVPVRFSGSGSGTSYSLTISSMEAEDAATYYCQQWSSYPFTFGSGTKLEIK	binds	binds
P14B07 Fab (Fab, V domains shown, Murine Fab, periplasmic extract) VH: QVQLQQPGAELVKPGASVKLSCTASGFNIKDNYIHWVKQRPEQGLEWIGSIDPANGNTKYDPKFQGKASITADTSSNTAYLQLSSLTSEDTTVYYCASYFYRYDVGGFDYWGQGTTLTVS VL: ENVLTQSPALMAASPGEKVTITCSVSSSISSSNLHWYQQKSGTSPKLWIYGTSNLASGVPVRFSGSGSGTSYSLTISSMEAEDAATYYCQQWSSYPFTFGSGTKLEIK	binds	binds
P13C08 Fab (Fab, V domains shown, Murine Fab, periplasmic extract) VH: QVQLKQSGAELVKPGASVKLSCTASGFNIKDNYIHWVKQRPEQGLEWIGSIDPANGNTKYDPKFQGKASITADTSSNTAYLQLSSLTSEDTAVYYCASYFYRYDVGGFDYWGQGTTLTVS VL: DVVMTQTPALMAASPGEKVTITCSVSSSISSSNLHWFQQKSGTSPKLWIYGTSNLASGVPVRFSGSGSGTSYSLTISSMEAEDAATYYCQQWSSYPFTFGSGTKLEIK	binds	binds
P13H05 Fab (Fab, V domains shown, Murine Fab, periplasmic extract) VH: QVQLQQPGAELVKPGASVKLSCTASGFNIKDTYIHWVKQRPEQGLEWIGEIDPANDNTKYDPKFQGKATITADTSSNTAYLQLSSLTSEDTAVYYCATYYYRYDVGGFDYWGQGTTLTVS VL: ENVLTQSPALMAASPGEKVTITCSVSSSISSSNLHWFQQKSGTSPKLWIYGTSNLASGVPVRFSGSGSGTSYSLTISSMEAEDAATYYCQQWSSYPFTFGSGTKLEIK	binds	binds
P13B02 Fab (Fab, V domains shown, Murine Fab, periplasmic extract) VH: QVQMKQSGAELVKPGASVKLSCTASGFNIKDTYIHWVKQRPEQGLEWIGEIDPANDNTKYDPKFQGKATITADTSSNTAYLQLSSLTSEDTAVYYCATYYYRYDVGGFDYWGQGTTLTVS VL: EILLTQSPALMAASPGEKVTITCSVSSSISSSNLHWFQQKSGTSPKLWIYGTSNLASGVPVRFSGSGSGTSYSLTISSMEAEDAATYYCQQWSSYPFTFGSGTKLEIK	binds	binds
P14F06 Fab (Fab, V domains shown, Murine Fab, periplasmic extract) VH: QVQMKQSGAELVKPGASVKLSCTASGFNIKDNYIHWVKQRPEQGLEWIGSIDPANGNTKYDPKFQGKASITADTSSNTAYLQLSSLTSEDTAVYYCASYFYRYDVGGFDYWGQGTTLTVS VL: EIVLTQSPALMAASPGEKVTITCSVSSSISSSNLHWFQQKSGTSPKLWIYGTSNLASGVPVRFSGSGSGTSYSLTISSMEAEDAATYYCQQWSSYPFTFGSGTKLEIK	binds	binds
P13D04 Fab (Fab, V domains shown, Murine Fab, periplasmic extract) VH: QVQLQQSGAELVKPGASVKLSCTASGFNIKDNYMDWVKQRPEQGLEWIGKIDPANGNTKYDPKFQGKATITADTSSNTAYLQLSSLTSEDTAVYYCATYYYRYDVGGFDYWGQGTTLTVS VL: DIVLTQSPALMAASPGEKVTITCSVSSSISSSNLHWFQQKSGTPPKLWIYGTSNLASGVPVRFSGSGSGTSYSLTISSMEAEDAATYYCQQWSSYPFTFGSGTKLEIK	binds	binds
P16H05 Fab (Fab, V domains shown, Murine Fab, periplasmic extract) VH: QVQLQQPGAELVKPGASVKLSCTASGFNIKDNYIHWVKQRPEQGLEWIGSIDPANGNTKYDPKFQGKASITADTSSNTAYLQLSSLTSEDTAVYYCASYFYRYDVGGFDYWGQGTTLTVS VL: EIVLTQSPALMAASPGEKVTITCSVSSSISSSNLHWYQQKSGTSPKLWIYGTSNLASGVPVRFSGSGSGTSYSLTISSMEAEDAATYYCQQWSSYPHTFGGGTKLEIK	binds	binds
P13A06 Fab (Fab, V domains shown, Murine Fab, periplasmic extract) VH: QVQLKQSGAELVKPGASVKLSCTASGFNIKDTYMYWVKQRPEQGLEWIGRIDPANGNTKYDPKFQGKATITADTSSNTVYLQLSSLTSEDTAVFYCVIYSYRYDVGGFDYWGQGTTLTVS VL: ENVLTQSPALMAASPGEKVTITCSVSSSISSSNLHWYQQKSGTSPKLWIYGTSNLASGVPVRFSGSGSGTSYSLTISSMEAEDAATYYCQQWSSYPHTFGGGTKLEIK	binds	binds
P15B06 Fab (Fab, V domains shown, Murine Fab, periplasmic extract) VH: EVQLQQSGAELVKPGASVKLSCTASGFNIKDTYMYWVKQRPEQGLDWIGRIDPANGNTHFDPKFQGKATITADTSSNTAYLQLSSLTSEDTAVYYCSTYFYRYDVGGFDYWGQGTTLTVS VL: QILLTQSPALMAASPGEKVTITCSVSSSISSSNLHWYQQKSGTSPKLWIYGTSNLASGVPVRFSGSGSGTSYSLTISSMEAEDAATYYCQQWSSYPLTFGAGTKLELK	binds	binds
P13F02 Fab (Fab, V domains shown, Murine Fab, periplasmic extract) VH: QVQLQQPGAELVKPGASVKLSCTASGFNIKDTYIHWVKQRPEQGLDWVGEIDPANGHTKYDPKFQGKATITADTSSNTAYLQLSSLTSEDTAVYYCATYYYRYDVGGFDYWGQGTTLTVS VL: ENVLTQSPALMAASPGEKVTITCSVSSSISSSNLHWFQQKSGTSPKLWIYGTSNLASGVPVRFSGSGSGTSYSLTISSMEAEDAATYYCQQWSSYPFTFGSGTKLEIK	binds	binds
P13E02 Fab (Fab, V domains shown, Murine Fab, periplasmic extract) VH: QVQLQQPGAELVKPGASVKLSCTVSGFNIKDTYIHWVKQRPEQGLEWIGEIDPANGNSKYAPRFQGKATITADTSSNTAYLQLSSLTSEDTAVYYCATYYYRYDVGGFDYWGQGTTLTVS VL: ENVLTQSPALMAASPGEKVTITCSVSSSISSSNLHWFQQKSGTSPKLWIYGTSNLASGVPVRFSGSGSGTSYSLTISSMEAEDAATYYCQQWSSYPFTFGSGTKLEIK	binds	binds
P14G03 Fab (Fab, V domains shown, Murine Fab, periplasmic extract) VH: QVQMKQSGAELVKPGASVKLSCTASGFNIKDTYIHWVKQRPGQGLEWIGEIDPANGNTKYDPKFQGKATITADTSSNTAYLQLSSLTSEDTAVYYCATYYYRYDVGGFDYWGQGTTLTVS VL: DIVLTQSPALMAASPGEKVTITCSVSSSISSSNLYWFQQKSGTSPKLWIYGTSNLASGVPVRFSGSGSGTSYSLTISSMEAEDAATYYCQQWSSYPFTFGSGTKLEIK	binds	binds
P01C09 Fab (Fab, V domains shown, Murine Fab, periplasmic extract) VH: QVQLKQSGAELVKPGASVKLSCTASGFNIKDTYMYWVKQRPEQGLEWIGRIDPANGNTKYDPKLQGKATITADTSSNTVYLQLSSLTSEDTAVFYCVIYSYRYDVGGFDYWGQGTTLTVS VL: EIVLTQSPALMAASPGEKVTITCSVSSSISSSNLHWYQQKSGTSPKLWIYGTSNLASGVPVRFSGSGSGTSYSLTISSMEAEDAATYYCQQWSSYPFTFGSGTKLEIK	binds	binds
